Sequences and labels used below:
B1: AB17L3-1/N (bispecific antibody, human IgG1, kappa, lambda, L234A L235A)
heavy: EVQLVESGGGLVQPGGSLKLSCAASGFTFNTYAMNWVRQAPGKGLEWVGRIRSKYNNYATYYADSVKDRFTISRDDSKNTAYLQMNSLKTEDTAVYYCVRHGNFGNSYVSWFAYWGQGTLVTVSSASTKGPSVFPLAPSSKSTSGGTAALGCLVKDYFPEPVTVSWNSGALTSGVHTFPAVLQSSGLYSLSSVVTVPSSSLGTQTYICNVNHKPSNTKVDKRVEPKSCDKTHTCPPCPAPEAAGGPSVFLFPPKPKDTLMISRTPEVTCVVVDVSHEDPEVKFNWYVDGVEVHNAKTKPREEQYNSTYRVVSVLTVLHQDWLNGKEYKCKVSNKALAAPIEKTISKAKGQPREPQVYTLPPSREEMTKNQVSLTCLVKGFYPSDIAVEWESNGQPENNYKTTPPVLDSDGSFFLYSKLTVDKSRWQQGNVFSCSVMHEALHNHYTQKSLSLSPG
light 1: EIVLTQSPATLSLSPGERATLSCRASQSVNSNLNWYQQKPGQAPRLLIYHGSNRATGIPARFSGSGSGTDFTLTISSLEPEDFAVYYCQQFDYFKEHNTFGQGTKVEIKRTVAAPSVFIFPPSDEQLKSGTASVVCLLNNFYPREAKVQWKVDNALQSGNSQESVTEQDSKDSTYSLSSTLTLSKADYEKHKVYACEVTHQGLSSPVTKSFNRGEC
light 2: QTVVTQEPSLTVSPGGTVTLTCRSSTGAVTTSNYANWFQQKPGQAPRGLIGGTNKRAPGTPARFSGSLLGGKAALTLSGAQPEDEAEYYCALWYKQRWVFGGGTKLTVLGQPKAAPSVTLFPPSSEELQANKATLVCLISDFYPGAVTVAWKADSSPVKAGVETTTPSKQSNNKYAASSYLSLTPEQWKSHRSYSCQVTHEGSTVEKTVAPTECS
notes: Kappa-lambda body, lead optimization wave 1
B2: AB73L3-1/N (bispecific antibody, human IgG1, kappa, lambda, L234A L235A)
heavy: B1 heavy
light 1: B1 light 1 with G51S, S52N, A55P, T56H, K95R, H97Y
light 2: B1 light 2
notes: Kappa-lambda body, lead optimization wave 2
B3: AB71L3-1/N (bispecific antibody, human IgG1, kappa, lambda, L234A L235A)
heavy: B1 heavy
light 1: B1 light 1 with G51S, A55P, T56H
light 2: B1 light 2
notes: as for B2
B4: AB72L3-1/N (bispecific antibody, human IgG1, kappa, lambda, L234A L235A)
heavy: B1 heavy
light 1: B1 light 1 with G51S, S52T, A55P, T56R, H97Y
light 2: B1 light 2
notes: as for B2
B5: AB1L3-1/N (bispecific antibody, human IgG1, kappa, lambda, L234A L235A)
heavy: B1 heavy
light 1: B1 light 1 with Y93L, F94R, K95H
light 2: B1 light 2
notes: Kappa-lambda body: common heavy chain (hIgG1 L234A+L235A+P329A), kappa CEA light chain AB1, lambda CD3 light chain L3-1 (1A4); also called parental KL bispecific antibody

Results on five molecules are retold here after patent US20230136228A1 (LAMKAP BIO ALPHA, published 2023).

Positions count from the first letter of the chain named. Names and notes keep the numbering of the source.

One assay deals with T1, human CEACAM5 (carcinoembryonic antigen, CEA), cell surface (human, UniProt P06731 35-685).
T1 sequence (looked up): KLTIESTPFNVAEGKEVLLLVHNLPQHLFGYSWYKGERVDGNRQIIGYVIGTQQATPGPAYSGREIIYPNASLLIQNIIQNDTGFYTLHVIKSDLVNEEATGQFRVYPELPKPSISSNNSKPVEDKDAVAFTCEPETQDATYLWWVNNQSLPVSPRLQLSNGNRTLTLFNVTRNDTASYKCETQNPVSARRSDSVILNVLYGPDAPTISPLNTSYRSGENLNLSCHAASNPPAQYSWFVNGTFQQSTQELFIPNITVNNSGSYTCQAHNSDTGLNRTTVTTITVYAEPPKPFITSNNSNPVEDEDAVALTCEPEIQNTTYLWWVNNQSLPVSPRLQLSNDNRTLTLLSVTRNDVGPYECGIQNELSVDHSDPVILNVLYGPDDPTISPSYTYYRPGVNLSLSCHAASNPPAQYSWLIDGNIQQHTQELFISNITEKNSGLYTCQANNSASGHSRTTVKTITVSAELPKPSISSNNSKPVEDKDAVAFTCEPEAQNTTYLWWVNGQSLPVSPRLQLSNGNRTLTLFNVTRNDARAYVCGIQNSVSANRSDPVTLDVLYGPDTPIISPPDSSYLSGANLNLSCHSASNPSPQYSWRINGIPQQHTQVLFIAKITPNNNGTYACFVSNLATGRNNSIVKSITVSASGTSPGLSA
Put plainly: cell-based or functional assay.
For B1, the “Killing EC50, HPAFII cells (TDCC, LDH release)” value (from here on “Killing EC50, HPAFII cells”) was found to be 0.16 nM; the “Killing EC50, LS174T cells (TDCC, LDH release)” value (from here on “Killing EC50, LS174T cells”) stood at 0.25 nM; the “Killing EC50, MKN45 cells (TDCC, LDH release)” value (from here on “Killing EC50, MKN45 cells”) amounted to 0.11 nM.
Consider B2, for which the “Killing EC50, HPAFII cells” value amounted to 0.13 nM; the “Killing EC50, LS174T cells” value worked out at 0.06 nM; the “Killing EC50, MKN45 cells” value came to 0.03 nM.
For the molecule B3, the “Killing EC50, HPAFII cells” value came to 0.16 nM; the “Killing EC50, LS174T cells” value is 0.16 nM; the “Killing EC50, MKN45 cells” value amounted to 0.09 nM.
Consider B4, for which the “Killing EC50, HPAFII cells” value was found to be 0.12 nM; the “Killing EC50, LS174T cells” value is 0.11 nM; the “Killing EC50, MKN45 cells” value worked out at 0.02 nM.

The target in the next assay is T1, human CEACAM5 (carcinoembryonic …). The assay is described as follows: flow cytometry, MKN-45 cells. From the text: Examples of cells that can be used include CEACAM5-positive cell lines such as the gastric adenocarcinoma cell line MKN45 (expressing 155′000 CEACAM5 molecules per cell), or the pancreatic adenocarcinoma cell line HPAF-II (expressing 108′000 CEACAM5 molecules per cell) or the colorectal adenocarcinoma cell line LS174T (expressing 26′000 CEACAM5 molecules per cell) and CEACAM5-negative cell lines, such as the lung carcinoma cell line A549 and the MKN45 CEACAM5-knock out cell line generated by CRISPR-CAS9 methodology. Cell staining and binding assessment can be performed as described above. Binding of the bsAb of the invention at 200 nM, 1000 nM and 5000 nM is 40% and higher compared to binding of TCB2014 (see Table 4 and also FIGS. 11 and 14).
As for B1, the EC50 (commonly the concentration that produces a half-maximal response) was determined as 59.2 nM; the “Top MFI value” amounted to 862000 MFI; the “binding higher than TCB2014 (at 200 nM, 1000 nM and 5000 nM)” value is at least 40%.
For the molecule B2, the concentration giving a half-maximal response (EC50) was 27.8 nM; the “Top MFI value” was 921000 MFI; the “binding higher than TCB2014 (at 200 nM, 1000 nM and 5000 nM)” value is at least 40%.
For B3, a half-maximal response (EC50) required 34.1 nM; the “Top MFI value” stood at 833000 MFI; the “binding higher than TCB2014 (at 200 nM, 1000 nM and 5000 nM)” value was at least 40%.
With B4, the EC50 turned out to be 24.5 nM; the “Top MFI value” was 963000 MFI; the “binding higher than TCB2014 (at 200 nM, 1000 nM and 5000 nM)” value is at least 40%.

The target is the same in the next assay. Put plainly: flow cytometry, CEA positive cells. Background: A flow cytometer gives signals particle by particle.
On to B2, for which the “binding higher than TCB2014 (at 200 nM)” value is at least 40%.
The same measure, in the same setting: in the case of B3 it was at least 40%; in that of B4, at least 40%.

Another assay addresses T2, human CEACAM1 (human, UniProt P13688 35-526).
T2 construct: whole, on cells
T2 sequence (looked up): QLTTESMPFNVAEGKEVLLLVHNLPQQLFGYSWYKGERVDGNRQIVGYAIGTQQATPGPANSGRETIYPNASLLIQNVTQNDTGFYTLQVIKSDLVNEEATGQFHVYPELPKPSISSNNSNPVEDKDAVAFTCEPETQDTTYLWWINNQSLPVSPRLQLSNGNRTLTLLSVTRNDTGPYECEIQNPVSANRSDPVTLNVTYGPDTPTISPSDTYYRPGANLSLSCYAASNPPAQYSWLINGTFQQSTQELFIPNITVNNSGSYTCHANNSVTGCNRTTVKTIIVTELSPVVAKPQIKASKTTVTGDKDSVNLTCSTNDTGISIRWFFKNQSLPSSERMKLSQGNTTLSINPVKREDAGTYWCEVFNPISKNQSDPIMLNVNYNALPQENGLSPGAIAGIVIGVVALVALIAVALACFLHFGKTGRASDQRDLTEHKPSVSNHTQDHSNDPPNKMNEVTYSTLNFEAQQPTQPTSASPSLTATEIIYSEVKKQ
The assay is described as follows: flow cytometry, MFI on transfected PEAK cells divided by MFI on WT PEAK cells. On the procedure: Similarly, vectors encoding the full-length version of cyno CEACAM 5 and 6 are also used to express these proteins at the surface of PEAK and/or CHO cells. Non-transfected PEAK and/or CHO cells are used as negative control. Cells are harvested, counted, checked for viability and resuspended at 3×10⁶ cells/ml in FACS buffer (PBS 2% BSA, 0.1% NaN₃). 100 μl of the cell suspension are distributed in V-bottom 96-well plates (3×10⁵ cells/well). The supernatant is removed by centrifugation 3 minutes at 4° C., 1300 rpm and the cells incubated for 15 minutes at 4° C. with increasing concentrations of the antibody according to the invention. The antibodies carrying the anti-CEACAM5 arms to test are diluted in FACS buffer and the concentration range is 30 pM-500 nM. Cells are washed twice with cold FACS buffer and re-incubated for further 15 minutes at 4° C. with a compatible anti-human IgG secondary antibody. Cells are washed twice with cold FACS buffer and resuspended in 300 μl FACS buffer with 1:1500-diluted TOPRO-3 (Invitrogen). Fluorescence is measured using a FACSCalibur™ (BD Biosciences) or a Cytoflex Platform (Beckman Coulter). Dose-response binding curves are fitted using GraphPad Prism8 software. In the same manner, CEACAM1, CEACAM6 and other CEACAMs can be characterized.
For the bispecific antibodies AB17L3-1/N, AB71L3-1/N, AB72L3-1/N, AB73L3-1/N the MFI measured for binding to CEACAM5 transfected cells was found between 29000 and 41000 (Table 2). In contrast MFI found by using PEAK cells transfected with CEACAM 1,3,4,6,8 were found below 1000 with the only exception of a strong signal for AB72L3-1/N on CEACAM8 transfected cells. When MFI values obtained on transfected cells expressing any given CEACAM are divided by the values obtained on WT PEAK cells, “factors to PEAK WT” can be calculated (Table 3). With the exception of AB72L3-1/N, the antibodies of the invention are all specific to CEACAM5, as the “factor to PEAK WT” values are all below 2.0.
As to B1, the “Factor to PEAK WT” value was 1.2 fold.
Regarding B5, the “Factor to PEAK WT” value amounted to 1 fold.
Regarding B2, the “Factor to PEAK WT” value was found to be 1.1 fold.
Same read-out and setting: the value for B3 was 1 fold.
Take B4: the “Factor to PEAK WT” value stood at 1.4 fold.
